T1: PUF4 RNA-binding domain (Saccharomyces cerevisiae, UniProt P25339 537-888)
T1 sequence: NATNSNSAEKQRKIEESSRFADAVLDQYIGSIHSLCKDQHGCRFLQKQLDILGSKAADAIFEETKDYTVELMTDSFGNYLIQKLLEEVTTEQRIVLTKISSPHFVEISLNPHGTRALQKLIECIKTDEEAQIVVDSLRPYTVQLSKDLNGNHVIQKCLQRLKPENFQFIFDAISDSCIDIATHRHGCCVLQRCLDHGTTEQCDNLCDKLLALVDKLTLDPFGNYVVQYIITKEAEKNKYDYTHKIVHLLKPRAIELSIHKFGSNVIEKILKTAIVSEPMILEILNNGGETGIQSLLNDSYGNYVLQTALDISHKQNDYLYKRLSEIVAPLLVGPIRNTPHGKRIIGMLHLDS


What follows are binders tested against T1, PUF4 RNA-binding domain (assay: Mg; RNA-MaP; 20 mM Na-HEPES pH 7.4, 30 mM KOAc, 0.75 mM MgCl2, 0.1% Tween-20, 5% glycerol, 0.1 mg/mL BSA, 2 mM DTT; 25 C; 0.0125-409.6 nM protein). Settings: tags: N-His6-TEV cleaved; C-SNAP kept, Cy3B-labelled; label: tethered on chip by stalled RNA polymerase.

Row | Binder | Kd [nM]
1 | ACAAACGGACACUUAUUAGCACAAAC (ssRNA) [Id_ii_S3_P5E.4_K5.3_C5.2_[C-2G]_[T-1G]_H5.3_A5.1_F5.1_T5.2_[T11G]_[A12C]] | > 2300
2 | UCUCUUAGUGUUAUUAUCUCUU (ssRNA) [Ib_S1_P5E.1_K5.1_C5.1_H5.1_[T1A]_[A4G]_A5.1_F5.1_T5.1] | > 2300
3 | ACAAACGCACACUUAUUAUAACAAAC (ssRNA) [Id_ii_S3_P5E.4_K5.3_C5.2_[C-2G]_[T-1C]_H5.3_A5.1_F5.1_T5.2] | > 2300
4 | ACAAACCUUAUAUUAUUAUUACAAAC (ssRNA) [Id_ii_S3_P5E.3_K5.2_C5.2_H5.2_A5.1_F5.1_T5.2_[A12T]] | 208
5 | ACAAACCGUAUAUUAUUAGAACAAAC (ssRNA) [Id_ii_S3_P5E.3_K5.2_C5.2_[T-1G]_H5.2_A5.1_F5.1_T5.2_[T11G]] | 15.8
6 | ACAAACGCACACUUAUUAGAACAAAC (ssRNA) [Id_ii_S3_P5E.4_K5.3_C5.2_[C-2G]_[T-1C]_H5.3_A5.1_F5.1_T5.2_[T11G]] | > 2300
7 | ACAAACACUAUAUUAUUAUCACAAAC (ssRNA) [Id_ii_S3_P5E.3_K5.2_C5.2_[C-2A]_[T-1C]_H5.2_A5.1_F5.1_T5.2_[A12C]] | 370
8 | ACAAACUGACACUUAUUACCACAAAC (ssRNA) [Id_ii_S3_P5E.4_K5.3_C5.2_[C-2T]_[T-1G]_H5.3_A5.1_F5.1_T5.2_[T11C]_[A12C]] | > 2300
9 | ACAAACCAUAUAUUAUUAAAACAAAC (ssRNA) [Id_ii_S3_P5E.3_K5.2_C5.2_[T-1A]_H5.2_A5.1_F5.1_T5.2_[T11A]] | 631
10 | ACAAACCAUAUAUUAUUAAUACAAAC (ssRNA) [Id_ii_S3_P5E.3_K5.2_C5.2_[T-1A]_H5.2_A5.1_F5.1_T5.2_[T11A]_[A12T]] | 157
11 | ACAAACAUUAUAUUAUUACAACAAAC (ssRNA) [Id_ii_S3_P5E.3_K5.2_C5.2_[C-2A]_H5.2_A5.1_F5.1_T5.2_[T11C]] | 464
12 | ACAAACGAACACUUAUUAACACAAAC (ssRNA) [Id_ii_S3_P5E.4_K5.3_C5.2_[C-2G]_[T-1A]_H5.3_A5.1_F5.1_T5.2_[T11A]_[A12C]] | > 2300
13 | ACAAACAAUAUAUUAUUAGUACAAAC (ssRNA) [Id_ii_S3_P5E.3_K5.2_C5.2_[C-2A]_[T-1A]_H5.2_A5.1_F5.1_T5.2_[T11G]_[A12T]] | 118
14 | ACAAACUGACACUUAUUAAGACAAAC (ssRNA) [Id_ii_S3_P5E.4_K5.3_C5.2_[C-2T]_[T-1G]_H5.3_A5.1_F5.1_T5.2_[T11A]_[A12G]] | > 2300
15 | UCUCUUCGUGUUAUUAUCUCUU (ssRNA) [Ib_S1_P5E.1_K5.1_C5.1_H5.1_[T1C]_[A4G]_A5.1_F5.1_T5.1] | 2300
16 | ACAAACGCACACUUAUUAAAACAAAC (ssRNA) [Id_ii_S3_P5E.4_K5.3_C5.2_[C-2G]_[T-1C]_H5.3_A5.1_F5.1_T5.2_[T11A]] | > 2300
17 | UCUCUUUCUGUUAUUAUCUCUU (ssRNA) [Ib_S1_P5E.1_K5.1_C5.1_H5.1_[G2C]_[A4G]_A5.1_F5.1_T5.1] | > 2300
18 | ACAAACCCUAUAUUAUUACUACAAAC (ssRNA) [Id_ii_S3_P5E.3_K5.2_C5.2_[T-1C]_H5.2_A5.1_F5.1_T5.2_[T11C]_[A12T]] | 400
19 | ACAAACUGACACUUAUUACGACAAAC (ssRNA) [Id_ii_S3_P5E.4_K5.3_C5.2_[C-2T]_[T-1G]_H5.3_A5.1_F5.1_T5.2_[T11C]_[A12G]] | > 2300
20 | ACAAACUGACACUUAUUAUAACAAAC (ssRNA) [Id_ii_S3_P5E.4_K5.3_C5.2_[C-2T]_[T-1G]_H5.3_A5.1_F5.1_T5.2] | > 2300
21 | ACAAACGUACACUUAUUACCACAAAC (ssRNA) [Id_ii_S3_P5E.4_K5.3_C5.2_[C-2G]_H5.3_A5.1_F5.1_T5.2_[T11C]_[A12C]] | 972
22 | UCUCUUUGUAAUAUUAUCUCUU (ssRNA) [Ia_S1_P5E.1_K5.1_C5.1_H5.1_A5.1_[T5A]_F5.1_T5.1] | 6.33
23 | ACAAACCUUAUAUUAUUAAUACAAAC (ssRNA) [Id_ii_S3_P5E.3_K5.2_C5.2_H5.2_A5.1_F5.1_T5.2_[T11A]_[A12T]] | 459
24 | ACAAACGUACACUUAUUAUUACAAAC (ssRNA) [Id_ii_S3_P5E.4_K5.3_C5.2_[C-2G]_H5.3_A5.1_F5.1_T5.2_[A12T]] | 702

Row | Binder | Kd [nM]
25 | ACAAACAUUAUAUUAUUAGGACAAAC (ssRNA) [Id_ii_S3_P5E.3_K5.2_C5.2_[C-2A]_H5.2_A5.1_F5.1_T5.2_[T11G]_[A12G]] | 94.3
26 | ACAAACGGACACUUAUUACAACAAAC (ssRNA) [Id_ii_S3_P5E.4_K5.3_C5.2_[C-2G]_[T-1G]_H5.3_A5.1_F5.1_T5.2_[T11C]] | > 2300
27 | ACAAACGAACACUUAUUAUCACAAAC (ssRNA) [Id_ii_S3_P5E.4_K5.3_C5.2_[C-2G]_[T-1A]_H5.3_A5.1_F5.1_T5.2_[A12C]] | > 2300
28 | ACAAACGUACACUUAUUAUCACAAAC (ssRNA) [Id_ii_S3_P5E.4_K5.3_C5.2_[C-2G]_H5.3_A5.1_F5.1_T5.2_[A12C]] | 1180
29 | UCUCUUCGAAUUAUUAUCUCUU (ssRNA) [Ib_S1_P5E.1_K5.1_C5.1_H5.1_[T1C]_[T3A]_A5.1_F5.1_T5.1] | > 2300
30 | ACAAACCAUAUAUUAUUACAACAAAC (ssRNA) [Id_ii_S3_P5E.3_K5.2_C5.2_[T-1A]_H5.2_A5.1_F5.1_T5.2_[T11C]] | 240
31 | ACAAACCUUAUAUUAUUAGAACAAAC (ssRNA) [Id_ii_S3_P5E.3_K5.2_C5.2_H5.2_A5.1_F5.1_T5.2_[T11G]] | 108
32 | ACAAACCCUAUAUUAUUAAAACAAAC (ssRNA) [Id_ii_S3_P5E.3_K5.2_C5.2_[T-1C]_H5.2_A5.1_F5.1_T5.2_[T11A]] | 673
33 | ACAAACCAUAUAUUAUUACUACAAAC (ssRNA) [Id_ii_S3_P5E.3_K5.2_C5.2_[T-1A]_H5.2_A5.1_F5.1_T5.2_[T11C]_[A12T]] | 168
34 | ACAAACCUUAUAUUAUUACGACAAAC (ssRNA) [Id_ii_S3_P5E.3_K5.2_C5.2_H5.2_A5.1_F5.1_T5.2_[T11C]_[A12G]] | 406
35 | ACAAACGUACACUUAUUAAUACAAAC (ssRNA) [Id_ii_S3_P5E.4_K5.3_C5.2_[C-2G]_H5.3_A5.1_F5.1_T5.2_[T11A]_[A12T]] | 707
36 | ACAAACCCUAUAUUAUUAACACAAAC (ssRNA) [Id_ii_S3_P5E.3_K5.2_C5.2_[T-1C]_H5.2_A5.1_F5.1_T5.2_[T11A]_[A12C]] | 452
37 | ACAAACAUUAUAUUAUUAGAACAAAC (ssRNA) [Id_ii_S3_P5E.3_K5.2_C5.2_[C-2A]_H5.2_A5.1_F5.1_T5.2_[T11G]] | 144
38 | ACAAACCUUAUAUUAUUAGCACAAAC (ssRNA) [Id_ii_S3_P5E.3_K5.2_C5.2_H5.2_A5.1_F5.1_T5.2_[T11G]_[A12C]] | 59.3
39 | ACAAACGGACACUUAUUAAGACAAAC (ssRNA) [Id_ii_S3_P5E.4_K5.3_C5.2_[C-2G]_[T-1G]_H5.3_A5.1_F5.1_T5.2_[T11A]_[A12G]] | > 2300
40 | ACAAACAAUAUAUUAUUAUCACAAAC (ssRNA) [Id_ii_S3_P5E.3_K5.2_C5.2_[C-2A]_[T-1A]_H5.2_A5.1_F5.1_T5.2_[A12C]] | 576
41 | ACAAACGCACACUUAUUAUGACAAAC (ssRNA) [Id_ii_S3_P5E.4_K5.3_C5.2_[C-2G]_[T-1C]_H5.3_A5.1_F5.1_T5.2_[A12G]] | > 2300
42 | ACAAACGCACACUUAUUAAGACAAAC (ssRNA) [Id_ii_S3_P5E.4_K5.3_C5.2_[C-2G]_[T-1C]_H5.3_A5.1_F5.1_T5.2_[T11A]_[A12G]] | > 2300
43 | ACAAACAAUAUAUUAUUAAAACAAAC (ssRNA) [Id_ii_S3_P5E.3_K5.2_C5.2_[C-2A]_[T-1A]_H5.2_A5.1_F5.1_T5.2_[T11A]] | 550
44 | ACAAACCCUAUAUUAUUACCACAAAC (ssRNA) [Id_ii_S3_P5E.3_K5.2_C5.2_[T-1C]_H5.2_A5.1_F5.1_T5.2_[T11C]_[A12C]] | 448
45 | ACAAACAAUAUAUUAUUAACACAAAC (ssRNA) [Id_ii_S3_P5E.3_K5.2_C5.2_[C-2A]_[T-1A]_H5.2_A5.1_F5.1_T5.2_[T11A]_[A12C]] | 535
46 | ACAAACAAUAUAUUAUUAAUACAAAC (ssRNA) [Id_ii_S3_P5E.3_K5.2_C5.2_[C-2A]_[T-1A]_H5.2_A5.1_F5.1_T5.2_[T11A]_[A12T]] | 614
47 | ACAAACCAUAUAUUAUUAACACAAAC (ssRNA) [Id_ii_S3_P5E.3_K5.2_C5.2_[T-1A]_H5.2_A5.1_F5.1_T5.2_[T11A]_[A12C]] | 201
48 | ACAAACCCUAUAUUAUUAAUACAAAC (ssRNA) [Id_ii_S3_P5E.3_K5.2_C5.2_[T-1C]_H5.2_A5.1_F5.1_T5.2_[T11A]_[A12T]] | 464

— publication PMC9352680, “A comprehensive thermodynamic model for RNA binding by the Saccharomyces cerevisiae Pumilio protein PUF4”
